From patent publication US20220177549A1
Residue numbers refer to the chain shown, from its start. Names and notes keep the numbering of the source. One block for each binder: values may come before it.

Columns and labels:
[1] = target: bovine FcRn complex (bovine) (UniProt F6R592); test: SPR (Biacore 8K+), pH 5.9, 25 C; FcRn captured by anti-His, IgG as analyte; 1:1 kinetic model
[2] = target: ovine FcRn complex (ovine) (UniProt Q6QAT4); test: SPR (Biacore 8K+), pH 5.9, 25 C; FcRn captured by anti-His, IgG as analyte; steady state affinity
Chain of ovine FcRn complex (ovine) (main, as listed by the source, chain 1 of 2): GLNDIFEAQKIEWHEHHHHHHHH
Chain of ovine FcRn complex (ovine) (Q6QAT4 other isoform, or with tags, fused parts or gaps, chain 2 of 2): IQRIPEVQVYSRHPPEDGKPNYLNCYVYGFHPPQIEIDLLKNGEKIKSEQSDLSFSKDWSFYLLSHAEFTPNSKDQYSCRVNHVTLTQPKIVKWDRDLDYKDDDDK

[3] = target: ovine FcRn complex (ovine) (UniProt Q6QAT4); test: SPR (Biacore 8K+), pH 5.9, 25 C; FcRn captured by anti-His, IgG as analyte; 1:1 kinetic model
[4] = target: equine FcRn complex (equine) (UniProt F6XZ61); test: as above
Chain of equine FcRn complex (equine) (chain, as listed by the source, chain 1 of 2): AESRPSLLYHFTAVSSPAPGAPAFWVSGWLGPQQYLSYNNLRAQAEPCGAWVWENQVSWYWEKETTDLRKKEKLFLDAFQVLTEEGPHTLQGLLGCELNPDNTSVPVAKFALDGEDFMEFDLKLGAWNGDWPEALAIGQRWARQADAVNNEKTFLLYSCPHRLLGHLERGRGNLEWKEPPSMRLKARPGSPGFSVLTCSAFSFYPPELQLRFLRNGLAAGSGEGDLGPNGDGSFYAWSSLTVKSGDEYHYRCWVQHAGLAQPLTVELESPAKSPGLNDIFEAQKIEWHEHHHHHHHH
Chain of equine FcRn complex (equine) (P30441 other isoform, or with tags, fused parts or gaps, chain 2 of 2): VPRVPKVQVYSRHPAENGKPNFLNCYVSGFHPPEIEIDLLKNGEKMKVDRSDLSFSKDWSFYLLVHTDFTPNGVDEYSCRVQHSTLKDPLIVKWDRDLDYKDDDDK

[5] = target: porcine FcRn complex (porcine) (UniProt Q07717); test: as above
Chain of porcine FcRn complex (porcine) (Q07717 other isoform, or with tags, fused parts or gaps, chain 2 of 2): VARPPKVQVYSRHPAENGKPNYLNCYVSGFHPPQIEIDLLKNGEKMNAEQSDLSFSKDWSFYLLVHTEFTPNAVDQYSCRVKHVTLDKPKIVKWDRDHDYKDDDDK

[6] = target: porcine FcRn complex (porcine) (UniProt Q07717); test: SPR (Biacore 8K+), pH 5.9, 25 C; FcRn captured by anti-His, IgG as analyte; steady state affinity

Chain of bovine FcRn complex (bovine) (chain, as listed by the source, chain 1 of 2): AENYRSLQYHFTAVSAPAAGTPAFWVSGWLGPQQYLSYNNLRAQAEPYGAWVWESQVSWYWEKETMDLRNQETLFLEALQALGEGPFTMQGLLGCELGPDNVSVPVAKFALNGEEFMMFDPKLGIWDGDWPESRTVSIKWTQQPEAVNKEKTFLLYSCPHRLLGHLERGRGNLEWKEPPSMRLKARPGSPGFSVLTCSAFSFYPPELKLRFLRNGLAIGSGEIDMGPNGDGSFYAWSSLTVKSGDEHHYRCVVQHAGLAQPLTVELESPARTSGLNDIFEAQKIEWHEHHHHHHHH
Chain of bovine FcRn complex (bovine) (P01888 other isoform, or with tags, fused parts or gaps, chain 2 of 2): as the sequence (Q6QAT4 other isoform, or with tags, fused parts or gaps, chain 2 of 2) above, with I4P, E6K, V7I, N82K, T87E, K90R counted along it

- Fold increase over wild-type KD [2]: 1 fold
B7: Ovine wild-type (antibody, part only; not given: variable domains and light chain, IgG1, not shown: another chain or arm of the molecule)
Fc: PELPGGPSVFIFPPKPKDTLTISGTPEVTCVVVDVGQDDPEVQFSWFVDNVEVRTARTKPREEQFNSTFRVVSALPIQHQDWTGGKEFKCKVHNEALPAPIVRTISRTKGQAREPQVYVLAPPQEELSKSTLSVTCLVTGFYPDYIAVEWQKNGQPESEDKYGTTTSQLDADGSYFLYSRLRVDKNSWQEGDTYACVVMHEALHNHYTQKSISKPPGK

- Fold increase over wild-type KD [3]: 11 fold
- Kd [3]: 43.1 nM
B10: Ovine T252Y (antibody, part only; not given: variable domains and light chain, IgG1, not shown: another chain or arm of the molecule)
Fc: B7 Fc with T21Y

- Fold increase over wild-type KD [5]: 3.3 fold
- Kd [5]: 96.1 nM
B21: Porcine T286E (antibody, part only; not given: variable domains and light chain, IgG1a, not shown: another chain or arm of the molecule)
Fc: GCEVAGPSVFIFPPKPKDTLMISQTPEVTCVVVDVSKEHAEVQFSWYVDGVEVHEAETRPKEEQFNSTYRVVSVLPIQHQDWLKGKEFKCKVNNVDLPAPITRTISKAIGQSREPQVYTLPPPAEELSRSKVTVTCLVIGFYPPDIHVEWKSNGQPEPEGNYRTTPPQQDVDGTFFLYSKLAVDKARWDHGETFECAVMHEALHNHYTQKSISKTQGK

- Fold increase over wild-type KD [5]: 40 fold
- Kd [5]: 7.93 nM
B22: Porcine N434Y (antibody, part only; not given: variable domains and light chain, IgG1a, not shown: another chain or arm of the molecule)
Fc: B21 Fc with E55T, N205Y

- Fold increase over wild-type KD [6]: 1 fold
B23: Porcine wild-type (antibody, part only; not given: variable domains and light chain, IgG1a, not shown: another chain or arm of the molecule)
Fc: B21 Fc with E55T

- Fold increase over wild-type KD [5]: 4.1 fold
- Kd [5]: 76.4 nM
B24: Porcine Q311V (antibody, part only; not given: variable domains and light chain, IgG1a, not shown: another chain or arm of the molecule)
Fc: B21 Fc with E55T, Q80V

- Fold increase over wild-type KD [5]: 3.3 fold
- Kd [5]: 97.2 nM
B25: Porcine M252Y (antibody, part only; not given: variable domains and light chain, IgG1a, not shown: another chain or arm of the molecule)
Fc: B21 Fc with M21Y, E55T

- Fold increase over wild-type KD [5]: 9.3 fold
- Kd [5]: 34.1 nM
B26: Porcine Q309V (antibody, part only; not given: variable domains, light chain, IgG1a, not shown: another chain or arm of the molecule)
Fc: B21 Fc with E55T, Q78V

- Fold increase over wild-type KD [5]: 3.4 fold
- Kd [5]: 93.6 nM
B27: Porcine Q309D (antibody, part only; not given: variable domains and light chain, IgG1a, not shown: another chain or arm of the molecule)
Fc: B21 Fc with E55T, Q78D

- Fold increase over wild-type KD [5]: 3 fold
- Kd [5]: 105 nM
B28: Porcine A426Y (antibody, part only; not given: variable domains, light chain, IgG1a, not shown: another chain or arm of the molecule)
Fc: B21 Fc with E55T, A197Y

- Fold increase over wild-type KD [5]: 3.6 fold
- Kd [5]: 86.9 nM
B29: Porcine M428Y (antibody, part only; not given: variable domains and light chain, IgG1a, not shown: another chain or arm of the molecule)
Fc: B21 Fc with E55T, M199Y

Continued, binder first:

B1: Bovine wild-type (antibody, part only; not given: variable domains, light chain, IgG1, not shown: another chain or arm of the molecule)
Fc: PPELPGGPSVFIFPPKPKDTLTISGTPEVTCVVVDVGHDDPEVKFSWFVDNVEVNTATTKPREEQFNSTYRVVSALRIQHQDWTGGKEFKCKVHNEGLPAPIVRTISRTKGPAREPQVYVLAPPQEELSKSTVSLTCMVTSFYPDYIAVEWQRNGQPESEDKYGTTPPQLDADSSYFLYSKLRVDRNSWQEGDTYTCVVMHEALHNHYTQKSTSKSA
- Fold increase over wild-type KD [1]: 1 fold
- Kd [1]: 505 nM

B2: Bovine Q309V (antibody, part only; not given: variable domains, light chain, IgG1, not shown: another chain or arm of the molecule)
Fc: B1 Fc with Q79V
- Fold increase over wild-type KD [1]: 3.9 fold
- Kd [1]: 129 nM

B3: Bovine Y436H (antibody, part only; not given: variable domains and light chain, IgG1, not shown: another chain or arm of the molecule)
Fc: B1 Fc with Y208H
- Fold increase over wild-type KD [1]: 2.3 fold
- Kd [1]: 224 nM

B4: Bovine T252Y (antibody, part only; not given: variable domains and light chain, IgG1, not shown: another chain or arm of the molecule)
Fc: B1 Fc with T22Y
- Fold increase over wild-type KD [1]: 7.1 fold
- Kd [1]: 71.4 nM

B5: Bovine Q311V (antibody, part only; not given: variable domains and light chain, IgG1, not shown: another chain or arm of the molecule)
Fc: B1 Fc with Q81V
- Fold increase over wild-type KD [1]: 2.8 fold

B6: Bovine N434Y (antibody, part only; not given: variable domains and light chain, IgG1, not shown: another chain or arm of the molecule)
Fc: B1 Fc with N206Y
- Fold increase over wild-type KD [1]: 42 fold
- Kd [1]: 11.9 nM

B8: Ovine M428Y (antibody, part only; not given: variable domains and light chain, IgG1, not shown: another chain or arm of the molecule)
Fc: B7 Fc with M199Y
- Fold increase over wild-type KD [3]: 3 fold
- Kd [3]: 166 nM

B9: Ovine Q311V (antibody, part only; not given: variable domains and light chain, IgG1, not shown: another chain or arm of the molecule)
Fc: B7 Fc with Q80V
- Fold increase over wild-type KD [3]: 5.4 fold
- Kd [3]: 92.7 nM

B11: Ovine Q309V (antibody, part only; not given: variable domains and light chain, IgG1, not shown: another chain or arm of the molecule)
Fc: B7 Fc with Q78V
- Fold increase over wild-type KD [3]: 6.3 fold
- Kd [3]: 79.3 nM

B12: Ovine N434Y (antibody, part only; not given: variable domains and light chain, IgG1, not shown: another chain or arm of the molecule)
Fc: B7 Fc with N205Y
- Fold increase over wild-type KD [3]: 81 fold
- Kd [3]: 6.09 nM

B13: Equine Q311V (antibody, part only; not given: variable domains and light chain, IgG1, not shown: another chain or arm of the molecule)
Fc: APELLGGPSVFIFPPNPKDTLMITRTPEVTCVVVDVSQENPDVKFNWYMDGVEVRTATTRPKEEQFNSTYRVVSVLRIQHVDWLSGKEFKCKVNNQALPQPIERTITKTKGRSQEPQVYVLAPHPDELSKSKVSVTCLVKDFYPPEINIEWQSNGQPELETKYSTTQAQQDSDGSYFLYSKLSVDRNRWQQGTTFTCGVMHEALHNHYTQKNVSKNPGK
- Fold increase over wild-type KD [4]: 4 fold
- Kd [4]: 35.7 nM

B14: Equine T286E (antibody, part only; not given: variable domains and light chain, IgG1, not shown: another chain or arm of the molecule)
Fc: B13 Fc with T56E, V81Q
- Fold increase over wild-type KD [4]: 3 fold
- Kd [4]: 48 nM

B15: Equine Y436H (antibody, part only; not given: variable domains and light chain, IgG1, not shown: another chain or arm of the molecule)
Fc: B13 Fc with V81Q, Y208H
- Fold increase over wild-type KD [4]: 0.9 fold
- Kd [4]: 156 nM

B16: Equine Q309D (antibody, part only; not given: variable domains and light chain, IgG1, not shown: another chain or arm of the molecule)
Fc: B13 Fc with Q79D, V81Q
- Fold increase over wild-type KD [4]: 1 fold
- Kd [4]: 144 nM

B17: Equine M428Y (antibody, part only; not given: variable domains, light chain, IgG1, not shown: another chain or arm of the molecule)
Fc: B13 Fc with V81Q, M200Y
- Fold increase over wild-type KD [4]: 0.9 fold
- Kd [4]: 151 nM

B18: Equine Q309V (antibody, part only; not given: variable domains, light chain, IgG1, not shown: another chain or arm of the molecule)
Fc: B13 Fc with Q79V, V81Q
- Fold increase over wild-type KD [4]: 7.2 fold
- Kd [4]: 20.2 nM

B19: Equine M252Y (antibody, part only; not given: variable domains, light chain, IgG1, not shown: another chain or arm of the molecule)
Fc: B13 Fc with M22Y, V81Q
- Fold increase over wild-type KD [4]: 2 fold
- Kd [4]: 71.4 nM

B20: Equine N434Y (antibody, part only; not given: variable domains and light chain, IgG1, not shown: another chain or arm of the molecule)
Fc: B13 Fc with V81Q, N206Y
- Fold increase over wild-type KD [4]: 61 fold
- Kd [4]: 2.35 nM
